These results are taken from patent US20250236644A1 (University of Washington, published 2025).

A value given as a limit tells only on which side of the number the result lay.

The target in assay [1] is T1, effector peptide cs201B.
T1 construct: Unlabeled
T1 peptide: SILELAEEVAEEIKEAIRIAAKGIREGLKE
As to the kind of experiment: FRET titration; 2 nM labeled hinge, effector varied. Here is the method: (§1) Dotted lines in spectra indicate acceptor and donor emission peaks. B) Kinetic model describing the coupling of the conformational equilibrium to the binding equilibrium. X and Y: hinge in state X and Y, respectively; P: peptide; YP: peptide bound to hinge in state Y. k₁, k₋₁, k₋₂, and […] the microscopic rate constants. C) FP characterization of unlabeled extended hinge cs074F. From left to right: binding titration at 0.1 nM TAMRA-labeled peptide and varying hinge concentrations; time course after mixing 2 nM TAMRA-labeled peptide and 100 nM hinge fitted with a single-exponential equation (black line); apparent rate constants obtained from single-exponential kinetic fits plotted against absolute hinge concentrations (circles) and fitted with a linear equation (black line). D) FRET-based reversibility experiment using the labeled extended hinge […] introduced in C). Hinge concentration is 30 nM for all traces; 1 μM peptide is added at t=0, 3 μM unlabeled competitor hinge is added after 1 h. E) Top from left to right: schematic representation of the inpainting procedure that adds two helices to the peptide cs074B yielding a three-helix bundle (3hb); cylindrical representation of 3hb_05 bound to hinge cs074; overlay of design model and crystal structure of 3hb_05. Bottom from left to right: SEC traces for hinge cs074, 3hb_05, and a mixture of both; FRET-based titration of 2 nM extended labeled hinge cs074F and varying concentrations of 3hb_05 fitted with a standard binding isotherm (back line); Distance distributions obtained from DEER experiments as described in FIG. 2 (cs074, cs074+peptide cs074B, cs074+3hb_05).
(§2) Titrations were carried out in 96-well format, with 4 replicates per plate and 24 data points per titration (23 steps of two-fold serial dilution of effector (peptide or 3hb) in the presence of double-labeled hinge at a constant concentration of 2 nM) with a final sample volume of 80 μl per well. Titration plates were incubated overnight at room temperature before measuring to ensure complete equilibration. The raw fluorescence signal (donor emission upon acceptor excitation) was fitted to the equation

Assay [2] deals with T2, effector peptide cs074B.
T2 construct: Chemically synthesized, unlabeled
T2 peptide: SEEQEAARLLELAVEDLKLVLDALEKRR
As to the kind of experiment: FRET titration, 2 nM labeled hinge. Here is the method: as §1, §2

The target in assay [3] is T3, effector peptide cs221B.
T3 construct: Unlabeled
T3 peptide: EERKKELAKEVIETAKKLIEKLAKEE
The assay is described as follows: FRET titration, 2 nM labeled hinge. How it is done: as §1, §2

In assay [4] the target is T1, effector peptide cs201B. The assay is described as follows: FRET kinetics; slope of kapp against peptide concentration. Here is the method:
(§3) FIG. 14. Columns 1-3: FRET kinetics using extended hinges labeled with AlexaFluor™ 555 and AlexaFluor™ 647 at a constant concentration (2 nM for cs201F and cs074F, 5 nM for cs221F) and corresponding peptides at varying concentrations. Column 4: FP kinetics using TAMRA-labeled peptide cs074B at 2 nM and extended hinge cs074F at varying concentrations. All kinetic traces (rows 1-8) were fitted using a single-exponential equation (black lines). […] The slope of the linear fit gives the observed on rate kₒₙ.
(§4) For FRET kinetics experiments a 2× hinge solution and 8 different 2× effector solutions at different concentrations were prepared separately. 40 μl of each effector solution were mixed with 40 μl hinge solution using a multichannel pipet and the measurement was started immediately after mixing. Fluorescence signals S at each concentration were fitted individually to the equation

Assay [5] addresses T4, effector protein 3hb21.
T4 construct: Three-helix bundle built around peptide cs221B
T4 chain: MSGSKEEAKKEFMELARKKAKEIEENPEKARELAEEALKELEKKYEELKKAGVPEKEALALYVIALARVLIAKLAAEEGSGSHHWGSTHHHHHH
As to the kind of experiment: FRET titration; 2 nM hinge cs221F, 3hb varied. How it is done:
(§5) FIG. 18. FRET-based quantitative analysis of the interaction between cs221F and 3hb21. Individual kinetic traces were obtained using a constant hinge concentration of 5 nM and varying 3hb concentrations as indicated by plot labels. Single exponential fits give apparent rate constants that increase linearly with the total 3hb concentration (points in pseudo-first order plot). The linear fit of kₐₚₚ against 3hb concentration gives an observed on rate that is 5 times faster than the observed on rate of the original peptide.
as §2

The target of assay [6] is T4, effector protein 3hb21. The assay is described as follows: FRET titration; 2 nM labeled hinge, effector varied. Here is the method: as §1, §2
For assay [7], the target named is T3, effector peptide cs221B. The description is as above. How it is done:
as §1, §2

For assay [8], the target named is T1, effector peptide cs201B. The assay is described as follows: FRET titration, 2 nM labeled hinge. Here is the method: as §1, §2
For assay [9], the target named is T4, effector protein 3hb21. As to the kind of experiment: FRET kinetics; 5 nM labeled hinge, slope of kapp against 3hb concentration.
The target of assay [10] is T3, effector peptide cs221B. The assay is described as follows: FRET kinetics; slope of kapp against peptide concentration. Here is the method:
as §3, §4

Assay [11] addresses T4, effector protein 3hb21. The assay is described as follows: FRET kinetics; 5 nM hinge, 3hb varied. How it is done: as §5, §4
Assay [12] addresses T2, effector peptide cs074B. The assay is described as follows: FRET titration; 2 nM labeled hinge, effector varied. How it is done: as §1, §2
The target of a further assay is T5, effector protein 3hb12.
T5 construct: Three-helix bundle built around peptide cs074B
T5 chain: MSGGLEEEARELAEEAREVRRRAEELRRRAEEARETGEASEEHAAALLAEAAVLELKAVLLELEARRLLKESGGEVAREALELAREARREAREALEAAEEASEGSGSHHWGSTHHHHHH
The description is as above. How it is done: as §1, §2

The next assay concerns the target T6, effector protein 3hb08.
T6 construct: Three-helix bundle built around peptide cs074B
T6 chain: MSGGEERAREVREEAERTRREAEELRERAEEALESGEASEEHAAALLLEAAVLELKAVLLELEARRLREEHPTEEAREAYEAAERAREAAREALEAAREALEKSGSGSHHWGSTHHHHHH
Described as above. How it is done:
as §1, §2

A further assay has as its target T7, effector protein 3hb03.
T7 construct: Three-helix bundle built around peptide cs074B
T7 chain: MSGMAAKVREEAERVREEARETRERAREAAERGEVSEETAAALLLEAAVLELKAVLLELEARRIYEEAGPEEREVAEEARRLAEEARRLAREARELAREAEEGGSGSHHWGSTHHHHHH
The description is as above. How it is done:
as §1, §2

The target in a further assay is T8, effector protein 3hb11.
T8 construct: Three-helix bundle built around peptide cs074B
T8 chain: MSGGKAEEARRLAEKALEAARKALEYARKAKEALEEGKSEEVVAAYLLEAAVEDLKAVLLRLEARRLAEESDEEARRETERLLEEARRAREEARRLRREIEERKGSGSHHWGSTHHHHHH
Described as above. How it is done: as §1, §2

A further assay has as its target T9, effector protein 3hb05.
T9 construct: Three-helix bundle built around peptide cs074B
T9 chain: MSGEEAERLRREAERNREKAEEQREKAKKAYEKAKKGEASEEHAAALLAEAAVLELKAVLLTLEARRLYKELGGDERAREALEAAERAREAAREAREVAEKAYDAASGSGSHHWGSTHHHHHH
The description is as above. Here is the method: as §1, §2

In another assay the target is T10, effector protein 3hb04.
T10 construct: Three-helix bundle built around peptide cs074B
T10 chain: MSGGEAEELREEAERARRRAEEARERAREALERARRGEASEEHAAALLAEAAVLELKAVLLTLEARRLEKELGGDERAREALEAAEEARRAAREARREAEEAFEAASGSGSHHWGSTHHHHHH
The description is as above. Here is the method: as §1, §2

Assay [13] concerns the target T2, effector peptide cs074B. The assay is described as follows: FRET kinetics; slope of kapp against peptide concentration. How it is done: as §3, §4
The target of assay [14] is T3, effector peptide cs221B. The assay is described as follows: FRET titration; 2 nM labeled hinge, off-target peptide varied. How it is done: (§6) The buffer for all FRET measurements was 20 mM Tris-HCl, 100 mM NaCl, 0.05% v/v TWEEN®20 at pH 8. Fluorescence spectra were recorded at room temperature using a FluoroMax™ spectrometer in a 1 cm×1 cm cuvette at a sample volume of 3 ml. FRET titrations and kinetics measurements were performed at 25° C. in 96-well plates (Corning 3686) using a Synergy Neo2™ plate reader. Excitation wavelength was 520 nm and emission wavelength was 665 nm (except for donor-donor controls for which emission wavelength was 555 nm, see FIG. 13B right column).
as §2

The target of assay [15] is T1, effector peptide cs201B. Described as above. How it is done: as §6, §2

B1: FRET(extension) cs201F, labeled with AlexaFluor 555 and AlexaFluor 647 (designed binder)
chain: MSGDEEVQEAVERAEELREEAEELIKKARKTGDPELLRKALEALEEAVRAVEEAICRNPDNDEAVETAVRLARELKKVAEELQERAKKTGDPELLKLALRALEVAVRAVELAIKSNPDNDEAVETAVRLARELKKVAEELQERAKKTGDPELLKLALRALEVAVRAVELAIKRNPDNEEAIKTALRLARELRKVAKELIERARKTGDAELLKKALEAARVAVEAVRLAAEYNKENAEKMAELLVELAELAREVADVLIELAEKTGDPELLKKALEVLEEAVEAVRLAIEYDPDHDEAVETAVRLARELKKVAEELQERAKKTGDPELLKLALRALEVAVRAVELAIKSNPDNEEAVETAKRLAEELRKVAELLEERAKETGDPCLQELAKRAKEVADRARELAKKSNPNNGSGSHHWGSTHHHHHH
modifications: the two introduced cysteines stochastically labeled with an equal mixture of AlexaFluor 555 C2 maleimide (donor) and AlexaFluor 647 C2 maleimide (acceptor)
notes: also called FRET-labeled hinge cs201F
A word on the Kd: it is the equilibrium constant for the complex coming apart. The kon is the second-order rate constant of association. Lower therefore signals slow association. In the case of B1, the affinity with effector peptide cs201B [1], expressed as Kd, was 20 nM. Besides, the binding result with effector peptide cs074B [2] and with effector peptide cs221B [3] was “no binding (tested: µM concentrations)” in each case. Also, the on-rate (kon) with effector peptide cs201B [4] stood at 4500 M⁻¹ s⁻¹.

B2: FRET(extension) cs221F, labeled with AlexaFluor 555 and AlexaFluor 647 (designed binder)
chain: MSGEMVEEIEKLAEELAKKTKDCEVKKLAKKAAELAKKSTDEMKKEIVKDALELALRTKDEEVIRLALKAAVLAAESDDEEVKEVVKKALEAALKSKDEEVIRLLLLAAVLAAAAARSGSPEEKLEIAKKALELAMKSKDEEVIRLALLAAVLAARSDDEEVLKIVKKALELAMESKDVEVIRLALEAAVLAARSTDPEKKKCVYEALEKAMESKDEEEIKKELKAAVEKARSTEGSGSHHWGSTHHHHHH
modifications: the two introduced cysteines stochastically labeled with an equal mixture of AlexaFluor 555 C2 maleimide (donor) and AlexaFluor 647 C2 maleimide (acceptor)
As to B2, the Kd with effector protein 3hb21 [5] was below 2 nM; with effector protein 3hb21 [6], 2.2 nM; in the assay with effector peptide cs221B [7], 21 nM. The “fold stronger KD than the original peptide cs221B” value with effector protein 3hb21 [5] came out at 20 fold. Further, the binding result with effector peptide cs074B [2] and in the assay with effector peptide cs201B [8] was “no binding (tested: µM concentrations)” each time. The on-rate (kon) in the assay with effector protein 3hb21 [9] was 13000 M⁻¹ s⁻¹; with effector peptide cs221B [10] it was 2600 M⁻¹ s⁻¹. Also, the “fold faster observed on rate than the original peptide cs221B” value with effector protein 3hb21 [11] was 5 fold.

B3: FRET(extension) cs074F, labeled with AlexaFluor 555 and AlexaFluor 647 (designed binder)
chain: DEEVQEAVERAEELREEAEELIKKARKTGDPELLRKALEALECAVRAVEEAIKRNPDNDEAVETAVRLARELKKVAEELQERAKKTGDPELLKLALRALKVAVRAVKLAIKSNPDNEEAVKTAVRLARELLKVAEELKERAEKTGDPRLLLLAAEAIAWAIEAVFLAAKASENTEGALEAARAAVKLAEVAKRIAKLLQRDAKKEGDPELLKLALRALELAVRAVELAIKENPDNDEAVETAVRLARELKKVAEELQERAKKTGDPELLKLALRALEVAVRAVELAIKSNPDNEEAVETAKRLAEELRKVAELLEERACETGDPELQELAKRAKEVADRARELAKKSNPNNGSHHHHHH
modifications: the two introduced cysteines stochastically labeled with an equal mixture of AlexaFluor 555 C2 maleimide (donor) and AlexaFluor 647 C2 maleimide (acceptor)
notes: Extended hinge cs074 used in the FRET assays; also called extended labeled hinge cs074F
In the case of B3, the Kd in the assay with effector peptide cs074B [12], with effector protein 3hb12, with effector protein 3hb08, in the assay with effector protein 3hb03, with effector protein 3hb11 and with effector protein 3hb05 was below 2 nM throughout. Moreover, the dissociation constant (Kd) in the assay with effector protein 3hb04 is below 2 nM; in the assay with effector peptide cs221B [14] it was 130 nM; with effector peptide cs201B [15], 2500 nM. Further, the on-rate (kon) with effector peptide cs074B [13] worked out at 170000 M⁻¹ s⁻¹.
